The target in this data set is PSMA (prostate-specific membrane antigen) (human, UniProt Q04609 1-750). The data set can be described thus: tissue microarray staining with silver enhancement; 1 mM MgCl2, 1 mM CaCl2; epithelial staining similar to anti-PSMA antibody; extra smooth muscle staining; miniStrep: 50 mM Tris-Cl pH 8.0, 150 mM NaCl, 10 mM MgCl2, room temperature (16 h in solution); anti-PSMA: 20 mM HEPES pH 7.4, 150 mM NaCl, 1 mM MgCl2, 1 mM CaCl2, 0.05% Tween 20, 20 C. The conditions noted are these: protein: native; chain copies: 2; label: AuNP.

The record followed here is PMC2939592, “Laser ablation-based one-step generation and bio-functionalization of gold nanoparticles conjugated with aptamers”.

Sequence of PSMA (prostate-specific membrane antigen) (Q04609 whole entry): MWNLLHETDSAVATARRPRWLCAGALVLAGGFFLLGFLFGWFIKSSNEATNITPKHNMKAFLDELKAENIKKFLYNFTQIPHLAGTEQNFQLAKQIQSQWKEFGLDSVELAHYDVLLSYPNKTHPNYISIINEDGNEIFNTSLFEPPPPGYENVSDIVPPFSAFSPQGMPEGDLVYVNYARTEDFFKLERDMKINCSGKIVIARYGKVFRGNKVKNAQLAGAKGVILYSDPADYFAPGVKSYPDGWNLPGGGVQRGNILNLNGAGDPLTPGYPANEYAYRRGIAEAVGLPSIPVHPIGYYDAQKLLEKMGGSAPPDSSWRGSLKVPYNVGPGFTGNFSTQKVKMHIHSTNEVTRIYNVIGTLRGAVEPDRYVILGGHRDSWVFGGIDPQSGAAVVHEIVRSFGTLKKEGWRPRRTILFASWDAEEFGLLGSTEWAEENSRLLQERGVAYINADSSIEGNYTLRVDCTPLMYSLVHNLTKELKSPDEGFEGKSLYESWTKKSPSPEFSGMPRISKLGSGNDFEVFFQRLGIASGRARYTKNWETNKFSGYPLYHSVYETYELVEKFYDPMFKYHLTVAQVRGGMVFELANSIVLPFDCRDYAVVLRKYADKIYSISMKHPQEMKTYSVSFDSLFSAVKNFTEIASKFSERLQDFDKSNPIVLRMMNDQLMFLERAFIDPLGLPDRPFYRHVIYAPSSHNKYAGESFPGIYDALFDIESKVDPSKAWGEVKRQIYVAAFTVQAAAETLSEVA

B1: anti-PSMA aptamer on AuNP (structured_RNA)
RNA: GGGAGGACGAUGCGGAUCAGCCAUGUUUACGUCACUCCUUGUCAAUCCUCAUCGGCAGACGACUCGCCCGA
modifications: 3'-(CH2CH2O)6-(CH2)6-S-S-(CH2)6OH, conjugated to gold nanoparticle; base/sugar modifications not stated
Regarding B1, the binding result is given as “binds”.
